This passage reports Kd, koff and kon results from doi:10.1101/2025.10.22.684031.

Holding throughout (assay): SPR
Test [1] addresses N49P7 IgG1.
The target in test [2] is N49P7-FR IgG1.
Test [3] concerns the target eN49P7-FRv1-23 IgG1.

N49P7-FR IgG1, sequence (VH, as listed by the source, chain 1 of 2): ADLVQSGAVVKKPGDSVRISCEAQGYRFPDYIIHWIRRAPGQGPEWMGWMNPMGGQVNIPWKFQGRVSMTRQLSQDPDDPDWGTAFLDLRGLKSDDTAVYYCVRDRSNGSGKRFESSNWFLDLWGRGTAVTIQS
N49P7-FR IgG1, sequence (VL, as listed by the source, chain 2 of 2): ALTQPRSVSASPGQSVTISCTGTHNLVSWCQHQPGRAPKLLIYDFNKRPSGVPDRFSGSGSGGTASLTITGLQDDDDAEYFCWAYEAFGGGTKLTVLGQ
eN49P7-FRv1-23 IgG1, sequence (VH, as listed by the source, chain 1 of 2): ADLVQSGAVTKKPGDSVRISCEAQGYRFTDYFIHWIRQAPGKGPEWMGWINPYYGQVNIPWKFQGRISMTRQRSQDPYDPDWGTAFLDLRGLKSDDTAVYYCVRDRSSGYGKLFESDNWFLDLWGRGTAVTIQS
eN49P7-FRv1-23 IgG1, sequence (VL, as listed by the source, chain 2 of 2): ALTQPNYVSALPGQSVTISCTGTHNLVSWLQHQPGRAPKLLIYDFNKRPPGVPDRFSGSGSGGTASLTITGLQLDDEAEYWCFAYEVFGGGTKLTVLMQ
N49P7 IgG1, sequence (heavy, as listed by the source, chain 1 of 2): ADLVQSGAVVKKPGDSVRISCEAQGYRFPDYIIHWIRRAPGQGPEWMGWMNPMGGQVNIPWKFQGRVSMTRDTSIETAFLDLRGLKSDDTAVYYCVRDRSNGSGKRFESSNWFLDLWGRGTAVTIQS
N49P7 IgG1, sequence (light, as listed by the source, chain 2 of 2): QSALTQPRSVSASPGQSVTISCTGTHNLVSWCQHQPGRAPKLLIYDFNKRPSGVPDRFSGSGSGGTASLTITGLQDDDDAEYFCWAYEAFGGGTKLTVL

“HIV gp120 CNE8 (clade AE) (natural protein)”: in test [1], the Kd was determined as 73 nM, the koff was found to be 0.00079 s⁻¹ and the kon is 11000 M⁻¹ s⁻¹. Besides, in test [2], the Kd amounted to 15 nM, the koff came to 0.0013 s⁻¹ and the kon amounted to 88000 M⁻¹ s⁻¹. Further, in test [3], the Kd came to 47 nM, the koff amounted to 0.0011 s⁻¹ and the kon came to 24000 M⁻¹ s⁻¹.

In test [2], “HIV gp120 93TH057 (clade AE) (natural protein)” had a Kd of 19 nM, a koff of 0.0022 s⁻¹ and a kon of 120000 M⁻¹ s⁻¹. In test [3], this substance displayed a Kd of 29 nM, a dissociation rate constant (koff) of 0.0015 s⁻¹ and a kon of 51000 M⁻¹ s⁻¹.

Regarding “HIV gp120 CH119 (clade BC) (natural protein)”, in test [2], the Kd came to 110 nM, the koff amounted to 0.0008 s⁻¹ and the kon amounted to 7400 M⁻¹ s⁻¹. In test [3], this substance showed a Kd of 20 nM, a koff of 0.00053 s⁻¹ and an association rate constant (kon) of 27000 M⁻¹ s⁻¹.

Consider “HIV gp120 6041.v3 (clade AC) (natural protein)”, for which the Kd in test [1] came out at 100 nM; in test [2] it was 190 nM; in test [3], 24 nM. In addition, the results for the koff in test [1], in test [2] and in test [3] were 0.0032 s⁻¹, 0.0026 s⁻¹ and 0.001 s⁻¹, respectively. The values for the kon in test [1], in test [2] and in test [3] were 31000 M⁻¹ s⁻¹, 14000 M⁻¹ s⁻¹ and 44000 M⁻¹ s⁻¹, respectively.

In test [2], “HIV gp120 TRO.11 (clade B) (natural protein)” had a Kd of 120 nM, a koff of 0.0012 s⁻¹ and a kon of 9900 M⁻¹ s⁻¹. In test [3], this substance yielded a Kd of 44 nM, a koff of 0.00074 s⁻¹ and a kon of 17000 M⁻¹ s⁻¹.

As for “HIV gp120 Ce1176 (clade C) (natural protein)”, in test [2], the equilibrium dissociation constant (Kd) was found to be 63 nM, the koff came out at 0.00059 s⁻¹ and the kon was determined as 9400 M⁻¹ s⁻¹. In test [3], the dissociation constant Kd stood at 17 nM, the koff came to 0.00069 s⁻¹ and the kon worked out at 42000 M⁻¹ s⁻¹.

Take “HIV gp120 BJOX2000 (clade BC) (natural protein)”: in test [1], the Kd is above 1000 nM, the koff was found to be 0.0024 s⁻¹ and the kon stood at 680 M⁻¹ s⁻¹. Moreover, in test [2], the Kd is above 1000 nM, the koff is 0.0025 s⁻¹ and the on-rate constant (kon) is 280 M⁻¹ s⁻¹. In test [3], this substance returned a Kd of 50 nM, a koff of 0.00092 s⁻¹ and an association rate constant (kon) of 18000 M⁻¹ s⁻¹.

With “HIV gp120 IAVI-C22 (clade C) (natural protein)”, the Kd in test [1] is 230 nM; in test [2], above 1000 nM; in test [3] it was 65 nM. For the same substance, the values for the koff in test [1], in test [2] and in test [3] were 0.0011 s⁻¹, 0.0014 s⁻¹ and 0.00092 s⁻¹, respectively. The kon was 4900 M⁻¹ s⁻¹ in test [1], 200 M⁻¹ s⁻¹ in test [2] and 14000 M⁻¹ s⁻¹ in test [3].

In test [2], “HIV gp120 CAP45 (clade C) (natural protein)” displayed a Kd of 140 nM, a koff of 0.0017 s⁻¹ and a kon of 12000 M⁻¹ s⁻¹. Moreover, in test [3], the Kd is 31 nM, the koff is 0.0031 s⁻¹ and the kon turned out to be 100000 M⁻¹ s⁻¹.

Broadly, the Kd is a measure of binding affinity in units of concentration. Read a high Kd as a looser complex. Usually koff stands for the first-order rate constant of dissociation. Low readings indicate slow dissociation, high ones fast dissociation. A word on the kon: it is the rate constant with which the complex forms. A lower kon goes with slow association.
